For orientation: Kd means a measure of binding affinity in units of concentration. In general, koff refers to the rate constant with which the complex falls apart. A word on the kon: it is a measure of how fast the partners come together.

The target of the assay is T1, human recombinant soluble CD73 protein (human, UniProt P21589 27-547).
T1 construct: also called huCD73; rhCD73
T1 sequence: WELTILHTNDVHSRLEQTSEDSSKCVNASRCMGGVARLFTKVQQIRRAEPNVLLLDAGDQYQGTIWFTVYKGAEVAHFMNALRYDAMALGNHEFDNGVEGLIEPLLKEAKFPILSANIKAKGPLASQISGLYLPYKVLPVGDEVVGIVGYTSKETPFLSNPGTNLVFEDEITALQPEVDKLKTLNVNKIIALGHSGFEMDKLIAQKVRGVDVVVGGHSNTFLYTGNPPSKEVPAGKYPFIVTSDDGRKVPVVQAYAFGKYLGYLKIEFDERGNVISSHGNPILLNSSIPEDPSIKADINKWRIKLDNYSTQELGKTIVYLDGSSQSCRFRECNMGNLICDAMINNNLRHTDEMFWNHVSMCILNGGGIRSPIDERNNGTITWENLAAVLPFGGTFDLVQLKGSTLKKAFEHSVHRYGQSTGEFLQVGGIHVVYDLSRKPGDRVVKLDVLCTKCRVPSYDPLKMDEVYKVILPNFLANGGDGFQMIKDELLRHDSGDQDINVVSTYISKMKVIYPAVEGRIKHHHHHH
Kind of assay: SPR, Ab captured on Protein A, soluble huCD73 as analyte. The method, then:
SPR measurements were performed on a Biacore™ T200 apparatus at 25° C. Protein-A (GE Healthcare) was immobilized on a Sensor Chip CM5 (GE Healthcare). […] The entire sensorgram sets were fitted using the 1:1 kinetic binding model. Bivalent affinities and kinetic association and dissociation rate constants are calculated.
The binding of the antibodies in Table 2 of Example 1 were tested for binding to human soluble dimeric CD73 proteins and were cloned, produced and purified. Affinity and association and dissociation constants of humanized variants were assessed by SPR analysis.
On the technique in general: In SPR one partner is held on a chip, and binding of the other changes the refractive index at the surface.

B1: H2L2 (antibody, human IgG1, V domains shown)
VH: QIQLVQSGAEVKKPGASVKVSCKASGYAFTSYNMYWVRQAPGQSLEWMGYIDPYNGGSSYNLTFKGRVTITVDKSASTAYMELSSLRSEDTAVYYCARGYGNYKAWFAYWGQGTLVTVSS
VL: DIQMTQSPSSLSASVGDRVTITCKASQSVSNDVAWYQQKPGKAPKLLIYYASTRYTGVPDRFSGSGYGTDFTFTISSLQPEDIATYYCQQDYSSLTFGQGTKLEIK
B1: the Kd stood at 1.3 nM, the koff was 0.000155 s⁻¹ and the kon came to 118000 M⁻¹ s⁻¹.

B2: H2L4 (antibody, human IgG1, V domains shown)
VH: QIQLVQSGAEVKKPGASVKVSCKASGYAFTSYNMYWVRQAPGQSLEWMGYIDPYNGGSSYNLTFKGRVTITVDKSASTAYMELSSLRSEDTAVYYCARGYGNYKAWFAYWGQGTLVTVSS
VL: DVQMTQSPSSLSASVGDRVTITCKASQSVSNDVAWYQQKPGKAPKLLIYYASTRYTGVPDRFSGSGYGTDFTFTISSLQPEDIATYFCQQDYSSLTFGQGTKLEIK
For B2, the Kd is 0.9 nM, the koff is 0.000106 s⁻¹ and the kon stood at 120000 M⁻¹ s⁻¹.

B3: H3L3 (antibody, human IgG1, V domains shown)
VH: QIQLVQSGAEVKKPGASVKVSCKASGYAFTSYNMYWVRQAPGQSLEWIGYIDPYNGGSSYNLTFKGKATITVDKSASTAYMELSSLRSEDTAVYYCARGYGNYKAWFAYWGQGTLVTVSS
VL: DVQMTQSPSSLSASVGDRVTITCKASQSVSNDVAWYQQKPGKAPKLLIYYASTRYTGVPDRFSGSGYGTDFTFTISSLQPEDIATYYCQQDYSSLTFGQGTKLEIK
For B3, the Kd was found to be 1.1 nM, the koff is 0.000105 s⁻¹ and the association rate constant (kon) was determined as 95700 M⁻¹ s⁻¹.

B4: H2L3 (antibody, human IgG1, V domains shown)
VH: QIQLVQSGAEVKKPGASVKVSCKASGYAFTSYNMYWVRQAPGQSLEWMGYIDPYNGGSSYNLTFKGRVTITVDKSASTAYMELSSLRSEDTAVYYCARGYGNYKAWFAYWGQGTLVTVSS
VL: DVQMTQSPSSLSASVGDRVTITCKASQSVSNDVAWYQQKPGKAPKLLIYYASTRYTGVPDRFSGSGYGTDFTFTISSLQPEDIATYYCQQDYSSLTFGQGTKLEIK
In the case of B4, the Kd stood at 1 nM, the koff amounted to 0.000123 s⁻¹ and the kon was determined as 120000 M⁻¹ s⁻¹.

B5: H0L2 (antibody, human IgG1, V domains shown)
VH: QVQLVQSGAEVKKPGASVKVSCKASGYTFTSYNMYWVRQAPGQRLEWMGYIDPYNGGSSYNLTFKGRVTITRDTSASTAYMELSSLRSEDTAVYYCARGYGNYKAWFAYWGQGTLVTVSS
VL: DIQMTQSPSSLSASVGDRVTITCKASQSVSNDVAWYQQKPGKAPKLLIYYASTRYTGVPDRFSGSGYGTDFTFTISSLQPEDIATYYCQQDYSSLTFGQGTKLEIK
notes: H0 VH limits counted by alignment with H1
B5: the Kd stood at 0.7 nM, the dissociation rate constant (koff) was found to be 0.000119 s⁻¹ and the kon was 168000 M⁻¹ s⁻¹.

B6: H1L4 (antibody, human IgG1, V domains shown)
VH: QIQLVQSGAEVKKPGASVKVSCKASGYTFTSYNMYWVRQAPGQRLEWMGYIDPYNGGSSYNLTFKGRVTITRDKSASTAYMELSSLRSEDTAVYYCARGYGNYKAWFAYWGQGTLVTVSS
VL: DVQMTQSPSSLSASVGDRVTITCKASQSVSNDVAWYQQKPGKAPKLLIYYASTRYTGVPDRFSGSGYGTDFTFTISSLQPEDIATYFCQQDYSSLTFGQGTKLEIK
In the case of B6, the Kd turned out to be 0.7 nM, the koff was found to be 6.77e-05 s⁻¹ and the on-rate (kon) was 98200 M⁻¹ s⁻¹.

B7: H4L2 (antibody, human IgG1, V domains shown)
VH: QIQLVQSGAEVKKPGASVKVSCKASGYAFASYNMYWVRQAPGQSLEWIGYIDPYNGGSSYNLTFKGKATLTVDKSASTAYMELSSLRSEDTAVYYCARGYGNYKAWFAYWGQGTLVTVSS
VL: DIQMTQSPSSLSASVGDRVTITCKASQSVSNDVAWYQQKPGKAPKLLIYYASTRYTGVPDRFSGSGYGTDFTFTISSLQPEDIATYYCQQDYSSLTFGQGTKLEIK
With B7, the Kd was 0.9 nM, the koff came to 7.12e-05 s⁻¹ and the kon stood at 77500 M⁻¹ s⁻¹.

B8: H3L4 (antibody, human IgG1, V domains shown)
VH: QIQLVQSGAEVKKPGASVKVSCKASGYAFTSYNMYWVRQAPGQSLEWIGYIDPYNGGSSYNLTFKGKATITVDKSASTAYMELSSLRSEDTAVYYCARGYGNYKAWFAYWGQGTLVTVSS
VL: DVQMTQSPSSLSASVGDRVTITCKASQSVSNDVAWYQQKPGKAPKLLIYYASTRYTGVPDRFSGSGYGTDFTFTISSLQPEDIATYFCQQDYSSLTFGQGTKLEIK
Consider B8, for which the Kd was 1 nM, the koff was determined as 8.91e-05 s⁻¹ and the kon amounted to 90400 M⁻¹ s⁻¹.

B9: H0L4 (antibody, human IgG1, V domains shown)
VH: QVQLVQSGAEVKKPGASVKVSCKASGYTFTSYNMYWVRQAPGQRLEWMGYIDPYNGGSSYNLTFKGRVTITRDTSASTAYMELSSLRSEDTAVYYCARGYGNYKAWFAYWGQGTLVTVSS
VL: DVQMTQSPSSLSASVGDRVTITCKASQSVSNDVAWYQQKPGKAPKLLIYYASTRYTGVPDRFSGSGYGTDFTFTISSLQPEDIATYFCQQDYSSLTFGQGTKLEIK
notes: as for B5
On to B9, for which the dissociation constant (Kd) amounted to 0.6 nM, the koff came out at 8.65e-05 s⁻¹ and the on-rate constant (kon) is 137000 M⁻¹ s⁻¹.

B10: H0L1 (antibody, human IgG1, V domains shown)
VH: QVQLVQSGAEVKKPGASVKVSCKASGYTFTSYNMYWVRQAPGQRLEWMGYIDPYNGGSSYNLTFKGRVTITRDTSASTAYMELSSLRSEDTAVYYCARGYGNYKAWFAYWGQGTLVTVSS
VL: DIQMTQSPSSLSASVGDRVTITCKASQSVSNDVAWYQQKPGKAPKLLIYYASTRYTGVPSRFSGSGYGTDFTFTISSLQPEDIATYYCQQDYSSLTFGQGTKLEIK
notes: as for B5
For B10, the Kd stood at 0.9 nM, the koff was determined as 0.000127 s⁻¹ and the kon came out at 144000 M⁻¹ s⁻¹.

B11: H3L2 (antibody, human IgG1, V domains shown)
VH: QIQLVQSGAEVKKPGASVKVSCKASGYAFTSYNMYWVRQAPGQSLEWIGYIDPYNGGSSYNLTFKGKATITVDKSASTAYMELSSLRSEDTAVYYCARGYGNYKAWFAYWGQGTLVTVSS
VL: DIQMTQSPSSLSASVGDRVTITCKASQSVSNDVAWYQQKPGKAPKLLIYYASTRYTGVPDRFSGSGYGTDFTFTISSLQPEDIATYYCQQDYSSLTFGQGTKLEIK
B11: the equilibrium dissociation constant (Kd) stood at 1.4 nM, the koff was determined as 0.000122 s⁻¹ and the kon stood at 86600 M⁻¹ s⁻¹.

B12: H1L3 (antibody, human IgG1, V domains shown)
VH: QIQLVQSGAEVKKPGASVKVSCKASGYTFTSYNMYWVRQAPGQRLEWMGYIDPYNGGSSYNLTFKGRVTITRDKSASTAYMELSSLRSEDTAVYYCARGYGNYKAWFAYWGQGTLVTVSS
VL: DVQMTQSPSSLSASVGDRVTITCKASQSVSNDVAWYQQKPGKAPKLLIYYASTRYTGVPDRFSGSGYGTDFTFTISSLQPEDIATYYCQQDYSSLTFGQGTKLEIK
As to B12, the Kd turned out to be 0.8 nM, the koff came to 7.2e-05 s⁻¹ and the kon amounted to 92600 M⁻¹ s⁻¹.

B13: H4L3 (antibody, human IgG1, V domains shown)
VH: QIQLVQSGAEVKKPGASVKVSCKASGYAFASYNMYWVRQAPGQSLEWIGYIDPYNGGSSYNLTFKGKATLTVDKSASTAYMELSSLRSEDTAVYYCARGYGNYKAWFAYWGQGTLVTVSS
VL: DVQMTQSPSSLSASVGDRVTITCKASQSVSNDVAWYQQKPGKAPKLLIYYASTRYTGVPDRFSGSGYGTDFTFTISSLQPEDIATYYCQQDYSSLTFGQGTKLEIK
Consider B13, for which the Kd was determined as 0.7 nM, the koff is 7.69e-05 s⁻¹ and the kon came to 110000 M⁻¹ s⁻¹.

B14: H4L0 (antibody, human IgG1, V domains shown)
VH: QIQLVQSGAEVKKPGASVKVSCKASGYAFASYNMYWVRQAPGQSLEWIGYIDPYNGGSSYNLTFKGKATLTVDKSASTAYMELSSLRSEDTAVYYCARGYGNYKAWFAYWGQGTLVTVSS
VL: DIQMTQSPSSLSASVGDRVTITCKASQSVSNDVAWYQQKPGKAPKLLIYYASTRYTGVPSRFSGSGSGTDFTFTISSLQPEDIATYYCQQDYSSLTFGQGTKLEIK
notes: L0 VL limits counted by alignment with L1
On to B14, for which the Kd was determined as 7.8 nM, the koff was found to be 0.00123 s⁻¹ and the kon was determined as 158000 M⁻¹ s⁻¹.

B15: H0L3 (antibody, human IgG1, V domains shown)
VH: QVQLVQSGAEVKKPGASVKVSCKASGYTFTSYNMYWVRQAPGQRLEWMGYIDPYNGGSSYNLTFKGRVTITRDTSASTAYMELSSLRSEDTAVYYCARGYGNYKAWFAYWGQGTLVTVSS
VL: DVQMTQSPSSLSASVGDRVTITCKASQSVSNDVAWYQQKPGKAPKLLIYYASTRYTGVPDRFSGSGYGTDFTFTISSLQPEDIATYYCQQDYSSLTFGQGTKLEIK
notes: as for B5
Consider B15, for which the Kd stood at 0.6 nM, the koff worked out at 9.49e-05 s⁻¹ and the kon was 170000 M⁻¹ s⁻¹.

B16: H0L0 (antibody, human IgG1, V domains shown)
VH: QVQLVQSGAEVKKPGASVKVSCKASGYTFTSYNMYWVRQAPGQRLEWMGYIDPYNGGSSYNLTFKGRVTITRDTSASTAYMELSSLRSEDTAVYYCARGYGNYKAWFAYWGQGTLVTVSS
VL: DIQMTQSPSSLSASVGDRVTITCKASQSVSNDVAWYQQKPGKAPKLLIYYASTRYTGVPSRFSGSGSGTDFTFTISSLQPEDIATYYCQQDYSSLTFGQGTKLEIK
notes: variable-domain limits counted by alignment with H1 and L1
In the case of B16, the Kd was 65 nM, the koff came to 0.00882 s⁻¹ and the kon is 136000 M⁻¹ s⁻¹.

The record behind these values is US20220041744A1 (INNATE PHARMA, published 2022).
